Results from the supplement of paper PMC7877785.
± gives the uncertainty stated by the source.

Test: self-splicing fitness, log relative to wild type (ln ratio); higher = more splicing; Tetrahymena group I intron in knt gene, E. coli kanamycin selection, DiMSum; sequences stand for … in CUCUCU…GGAGGGAAAAGUUAUCAGGCAUGCACCUGGUAGCUAGUCUUUAAACCAAUAGAUUGCAUCGGUUUAAAAGGCAAGACCGUCAAAUUGCGGGAAAGGGGUCAACAGCCGUUCAGUACCAAGUCUCAGGGGAAACUUUGAGAUGGCCUUGCAAAGGGUAUGGUAAUAAGCUGACGGACAUGGUCCUAACCACGCAGCCAAGUCCUAAGUCAACAGAUCUUCUGUUGAUAUGGAUGCAGUUCACAGACUAAAUGUCGGUCGGGGAAGAUGUAUUCUUCUCAUAAGAUAUAGUCGGACCUCUCCUUAAUGGGAGCUAGCGGAUGAAGUGAUGCAACACUGGAGCCGCUGGGAACUAAUUUGUAUGCGAAAGUAUAUUGAUUAGUUUUGGAGUACUCGUGGUCG
In short: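 The eight P1ex-region nucleotides of an intron in the knt kanamycin-resistance gene on pET-22b(+) were all randomised and the library put into E. coli BL21(DE3). Six replicate transformations were grown overnight at 37°C or 30°C on LB agar with or without 25 μg/mL kanamycin, together with 100 μg/mL carbenicillin, 50 μM IPTG and 0.2% rhamnose. Colonies were pooled and amplicon-sequenced on an Illumina HiSeq 2500. Fitness from DiMSum is the error-weighted combination of wild-type-normalised replicate fold changes, kanamycin over none.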

| Sequence | self-splicing fitness (ln) (30 °C) | self-splicing fitness (ln) (37 °C) |
| --- | --- | --- |
| GCACAGCAAUAUUACGAGCG | -1.16 ± 0.066 | -0.171 ± 0.077 |
| GGCGAGCAAUAUUACGGCCU | -2.45 ± 0.23 |  |
| GUGAAGCAAUAUUACGCGUU | -3.59 ± 0.2 | -2.02 ± 0.21 |
| CCGAAGCAAUAUUACGGCCC | -3.55 ± 0.3 | -1.71 ± 0.38 |
| AAGGAGCAAUAUUACGUCCU | -2.6 ± 0.25 | -2.27 ± 0.31 |
| GGGGAGCAAUAUUACGUAGU |  | -1.53 ± 0.37 |
| UUGUAGCAAUAUUACGUCCA | -0.4 ± 0.13 | -0.28 ± 0.14 |
| GGUUAGCAAUAUUACGAGUC | -3 ± 0.39 | -1.16 ± 0.23 |
| AGAGAGCAAUAUUACGUAAC |  | -3.26 ± 0.31 |
| CGCAAGCAAUAUUACGCUAA | -2.42 ± 0.17 | -3.24 ± 0.33 |
| ACGCAGCAAUAUUACGGUGC | -2.18 ± 0.15 |  |
| AUACAGCAAUAUUACGUACC | -0.828 ± 0.11 | -0.283 ± 0.15 |
| UGCAAGCAAUAUUACGUUGU | -4.31 ± 0.24 | -2.78 ± 0.2 |
| CGACAGCAAUAUUACGAGAC | -4.34 ± 0.3 | -2.57 ± 0.26 |
| AAUGAGCAAUAUUACGACGU | -1.13 ± 0.11 | -0.443 ± 0.12 |
| GUCGAGCAAUAUUACGAGCG | -2.88 ± 0.19 | -1.03 ± 0.23 |
| CGUCAGCAAUAUUACGUAAG | 0.214 ± 0.054 | 0.2 ± 0.07 |
| GCAGAGCAAUAUUACGCAGC | -2.42 ± 0.47 |  |
| GCAGAGCAAUAUUACGGCAG | -2.87 ± 0.23 | -1.18 ± 0.25 |
| AUUCAGCAAUAUUACGGGUA | -1.89 ± 0.11 | -1.31 ± 0.12 |
| ACCCAGCAAUAUUACGCGAG | -1.63 ± 0.078 | -0.948 ± 0.1 |
| ACAGAGCAAUAUUACGAGAU | -3.23 ± 0.19 | -2.55 ± 0.23 |
| GCCCAGCAAUAUUACGCUAC | -3.18 ± 0.21 | -2.72 ± 0.29 |
| CGUUAGCAAUAUUACGAUCA | -0.373 ± 0.16 | 0.245 ± 0.17 |
| GAGGAGCAAUAUUACGUGUC | -3.51 ± 0.27 | -1.91 ± 0.2 |

| Sequence | self-splicing fitness (ln) (30 °C) | self-splicing fitness (ln) (37 °C) |
| --- | --- | --- |
| UCCGAGCAAUAUUACGGAUC |  | -2.41 ± 0.39 |
| AAGGAGCAAUAUUACGCAUU | -2.8 ± 0.15 | -1.64 ± 0.16 |
| GUAGAGCAAUAUUACGAUUU | -1.13 ± 0.12 | -0.037 ± 0.21 |
| AGUAAGCAAUAUUACGAUAU | -1.95 ± 0.13 | -0.493 ± 0.15 |
| AUUCAGCAAUAUUACGAAAA | 0.178 ± 0.15 | 0.575 ± 0.17 |
| CGAGAGCAAUAUUACGAAAU | -2.81 ± 0.24 | -2.97 ± 0.37 |
| CUUAAGCAAUAUUACGCACC | -1.86 ± 0.45 |  |
| CUCUAGCAAUAUUACGAUUA | -3.01 ± 0.29 | -2.85 ± 0.25 |
| ACCCAGCAAUAUUACGUCAU | -1.84 ± 0.049 | -0.414 ± 0.059 |
| UAGCAGCAAUAUUACGCAUC | -4.15 ± 0.47 | -3.39 ± 0.26 |
| GUGGAGCAAUAUUACGAUUU | -1.07 ± 0.27 | -1.29 ± 0.29 |
| GCUUAGCAAUAUUACGUUCA | -1.01 ± 0.15 | -1.21 ± 0.17 |
| GAGAAGCAAUAUUACGGGGG |  | -1.8 ± 0.47 |
| UUAAAGCAAUAUUACGAAGA | -1.19 ± 0.12 | -0.63 ± 0.17 |
| GGGGAGCAAUAUUACGUAAG | -2.56 ± 0.21 | -1.01 ± 0.24 |
| GUAGAGCAAUAUUACGUGGG | -2.75 ± 0.17 | -2.08 ± 0.2 |
| GACGAGCAAUAUUACGAUAA |  | -2.09 ± 0.43 |
| GUAAAGCAAUAUUACGCAAG | -2.89 ± 0.18 | -0.51 ± 0.12 |
| AGAGAGCAAUAUUACGAGGU | -2.98 ± 0.2 | -1.87 ± 0.32 |
| UUCUAGCAAUAUUACGUAGU |  | -1.6 ± 0.24 |
| UUCCAGCAAUAUUACGGAGA | -1.83 ± 0.084 | -0.628 ± 0.081 |
| CCGGAGCAAUAUUACGUGGU | -3.01 ± 0.2 | 0.658 ± 0.18 |
| GACGAGCAAUAUUACGAUCU | -2.04 ± 0.15 | -1.13 ± 0.15 |
| GUUUAGCAAUAUUACGCAUA | -1.69 ± 0.18 | -1.19 ± 0.19 |
| CCGGAGCAAUAUUACGUAGA | -3.6 ± 0.19 | -2.66 ± 0.2 |

| Sequence | self-splicing fitness (ln) (30 °C) | self-splicing fitness (ln) (37 °C) |
| --- | --- | --- |
| GUCAAGCAAUAUUACGCCUG | -3.6 ± 0.25 | -2.6 ± 0.22 |
| CUACAGCAAUAUUACGCAAU | -3.8 ± 0.4 | -2.86 ± 0.4 |
| UGACAGCAAUAUUACGUCGC |  | -1.64 ± 0.45 |
| AUGAAGCAAUAUUACGCGCA | 0.498 ± 0.096 | 0.526 ± 0.12 |
| GUUUAGCAAUAUUACGUAAG | -0.762 ± 0.085 | 0.076 ± 0.15 |
| GUAGAGCAAUAUUACGCCAC | -1.7 ± 0.29 |  |
| AUAUAGCAAUAUUACGUACG | -2.49 ± 0.2 | -0.317 ± 0.15 |
| CCUCAGCAAUAUUACGCACA | -3.09 ± 0.48 | -2.02 ± 0.26 |
| GUGAAGCAAUAUUACGAGGG | -3.74 ± 0.25 | -1.29 ± 0.13 |
| CUUCAGCAAUAUUACGUCAU | -3.34 ± 0.21 | -3.76 ± 0.34 |
| CCAUAGCAAUAUUACGCUUU | -4.72 ± 0.28 | -3.1 ± 0.2 |
| ACGCAGCAAUAUUACGAUCA | -1.66 ± 0.099 | -1.26 ± 0.093 |
| UCCGAGCAAUAUUACGGUAG | -3.6 ± 0.14 | -2.43 ± 0.15 |
| CCUUAGCAAUAUUACGACCG | 0.294 ± 0.11 | -0.348 ± 0.18 |
| GCGUAGCAAUAUUACGGCAG | -3.83 ± 0.28 | -2.13 ± 0.39 |
| AUACAGCAAUAUUACGUCAC | -3.13 ± 0.16 | -2.1 ± 0.17 |
| GUUUAGCAAUAUUACGCUUU | -2.38 ± 0.25 | -0.513 ± 0.22 |
| GGGUAGCAAUAUUACGAAAA | -0.788 ± 0.35 |  |
| ACCCAGCAAUAUUACGUACC | -1.85 ± 0.12 | -1.63 ± 0.15 |
| UAAGAGCAAUAUUACGACCG | -2.9 ± 0.35 | -2.21 ± 0.25 |
| AGCGAGCAAUAUUACGUCCA | -2.59 ± 0.15 | -1.1 ± 0.15 |
| AAGCAGCAAUAUUACGGAAG | -3.51 ± 0.15 | -1.35 ± 0.14 |
| AAAUAGCAAUAUUACGACGA | -0.696 ± 0.099 | -0.228 ± 0.14 |
| GAGCAGCAAUAUUACGAACU | -1.17 ± 0.12 | -0.227 ± 0.17 |
| CUUGAGCAAUAUUACGGGAU | -2.99 ± 0.32 | -2.63 ± 0.31 |

| Sequence | self-splicing fitness (ln) (30 °C) | self-splicing fitness (ln) (37 °C) |
| --- | --- | --- |
| UUAUAGCAAUAUUACGCAUU | -3.19 ± 0.23 | -2.72 ± 0.2 |
| CCGUAGCAAUAUUACGUACG | -2.13 ± 0.18 | -1.83 ± 0.21 |
| AACUAGCAAUAUUACGAUCG | -0.822 ± 0.074 | 0.0491 ± 0.1 |
| CAACAGCAAUAUUACGGCGG | -0.393 ± 0.056 | 0.0944 ± 0.082 |
| ACAUAGCAAUAUUACGCUCC | -1.62 ± 0.17 | -2.05 ± 0.23 |
| UUAAAGCAAUAUUACGUUUG | -2.18 ± 0.087 | -0.699 ± 0.093 |
| CUGUAGCAAUAUUACGGUUU | -4.11 ± 0.26 | -2.69 ± 0.32 |
| UCGCAGCAAUAUUACGACCA | -1.83 ± 0.13 | -1.07 ± 0.14 |
| AAGCAGCAAUAUUACGCGUU | -2.2 ± 0.1 | -1.99 ± 0.11 |
| UGCCAGCAAUAUUACGUUUG | -2.35 ± 0.092 | -0.857 ± 0.12 |
| AGGGAGCAAUAUUACGAGCG | -2.94 ± 0.47 | -0.874 ± 0.43 |
| GGGUAGCAAUAUUACGCGUU | -0.304 ± 0.091 | -0.0887 ± 0.12 |
| GGACAGCAAUAUUACGCACA | -0.778 ± 0.09 | 0.0888 ± 0.1 |
| CGUGAGCAAUAUUACGGUGA | -2.84 ± 0.31 | -2.04 ± 0.38 |
| CCUUAGCAAUAUUACGGAUU | -3.31 ± 0.22 | -2.38 ± 0.36 |
| CACAAGCAAUAUUACGGACG | -0.358 ± 0.046 | 0.611 ± 0.072 |
| GACUAGCAAUAUUACGGGAG | -0.663 ± 0.096 | 0.0641 ± 0.12 |
| CUCAAGCAAUAUUACGCGGU | -3.45 ± 0.19 | -1.07 ± 0.12 |
| GUUCAGCAAUAUUACGCACG | -0.107 ± 0.22 | -0.682 ± 0.31 |
| ACCCAGCAAUAUUACGGCGG | -2.11 ± 0.08 | -1.04 ± 0.11 |
| CUGAAGCAAUAUUACGUGUG | -0.196 ± 0.046 | -0.0989 ± 0.067 |
| CGUCAGCAAUAUUACGGCCC | -1.75 ± 0.17 | -0.728 ± 0.24 |
| UAGGAGCAAUAUUACGGCCA | -2.27 ± 0.21 | -1.7 ± 0.27 |
| AUCUAGCAAUAUUACGAUCG | -3.35 ± 0.24 | -1.77 ± 0.27 |
